In the supplement of paper PMC9112550, “Optimization of the antimicrobial peptide Bac7 by deep mutational scanning” (BMC Biology, 2022):

Test system: Escherichia coli TOP10
Experiment: shrunken log2 fold change of peptide-encoding DNA abundance (4.5 h post-induction vs induction); higher = less antimicrobial activity (less host growth inhibition)
Conditions: time post-induction: 4.5 h; library: site-saturation at positions 5, 18, 19, 20
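Further: peptides expressed intracellularly from a pBAD plasmid library in pooled LB shake-flask culture, induced with 0.3% L-arabinose, DNA abundance read by NGS, three biological replicates, DESeq2 with apeglm shrinkage.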

Row | Sequence | shrunken log2 fold change
1 | RRIRMRPPRLPRPRPRPCSDPRP | 0.0242
2 | RRIRWRPPRLPRPRPRPAPHPRP | 0.491
3 | RRIRWRPPRLPRPRPRPAMHPRP | 0.341
4 | RRIRSRPPRLPRPRPRPKYDPRP | -0.0717
5 | RRIRGRPPRLPRPRPRPRSAPRP | 1.31
6 | RRIRQRPPRLPRPRPRPMVDPRP | -0.00399
7 | RRIRHRPPRLPRPRPRPQEVPRP | -0.0461
8 | RRIRWRPPRLPRPRPRPNGAPRP | 0.161
9 | RRIRCRPPRLPRPRPRPQVKPRP | 0.0486
10 | RRIRYRPPRLPRPRPRPAYNPRP | -0.638
11 | RRIRSRPPRLPRPRPRPSHNPRP | -0.784
12 | RRIRTRPPRLPRPRPRPGISPRP | 0.0832
13 | RRIRIRPPRLPRPRPRPQLTPRP | -0.28
14 | RRIRARPPRLPRPRPRPRFQPRP | 0.466
15 | RRIRFRPPRLPRPRPRPNETPRP | -0.0424
16 | RRIRCRPPRLPRPRPRPTDTPRP | -0.438
17 | RRIRIRPPRLPRPRPRPVPKPRP | 0.0597
18 | RRIRARPPRLPRPRPRPQCWPRP | 0.173
19 | RRIRWRPPRLPRPRPRPNIMPRP | -0.296
20 | RRIRIRPPRLPRPRPRPKTFPRP | -0.0578
21 | RRIRIRPPRLPRPRPRPPYSPRP | 0.0677
22 | RRIRMRPPRLPRPRPRPNHMPRP | -0.01
23 | RRIRGRPPRLPRPRPRPYPEPRP | 0.0556
24 | RRIRKRPPRLPRPRPRPRWHPRP | 0.0132
25 | RRIRERPPRLPRPRPRPHPHPRP | -0.167

Row | Sequence | shrunken log2 fold change
26 | RRIRRRPPRLPRPRPRPTMCPRP | 0.233
27 | RRIRQRPPRLPRPRPRPHFDPRP | -0.000826
28 | RRIRDRPPRLPRPRPRPPKEPRP | -0.2
29 | RRIRVRPPRLPRPRPRPMKQPRP | -0.0165
30 | RRIRQRPPRLPRPRPRPKFAPRP | 0.0489
31 | RRIRARPPRLPRPRPRPVHDPRP | 0.146
32 | RRIRMRPPRLPRPRPRPHTHPRP | -0.00443
33 | RRIRERPPRLPRPRPRPWMDPRP | -0.101
34 | RRIRNRPPRLPRPRPRPQPHPRP | -0.0382
35 | RRIRVRPPRLPRPRPRPEKTPRP | 0.0303
36 | RRIRPRPPRLPRPRPRPLYRPRP | -0.181
37 | RRIRMRPPRLPRPRPRPYEHPRP | -0.291
38 | RRIRNRPPRLPRPRPRPVVWPRP | 0.55
39 | RRIRCRPPRLPRPRPRPYRGPRP | -0.992
40 | RRIRWRPPRLPRPRPRPGWRPRP | 0.617
41 | RRIRSRPPRLPRPRPRPKTKPRP | 0.000308
42 | RRIRLRPPRLPRPRPRPFSYPRP | -0.747
43 | RRIRSRPPRLPRPRPRPRDDPRP | 0.0905
44 | RRIRMRPPRLPRPRPRPQVQPRP | -0.000946
45 | RRIRNRPPRLPRPRPRPRGIPRP | -0.0954
46 | RRIRGRPPRLPRPRPRPEHIPRP | 0.19
47 | RRIRNRPPRLPRPRPRPIHIPRP | -0.58
48 | RRIRGRPPRLPRPRPRPRVMPRP | 0.473
49 | RRIRHRPPRLPRPRPRPVFGPRP | 0.0859
50 | RRIRVRPPRLPRPRPRPEVLPRP | 0.244

Row | Sequence | shrunken log2 fold change
51 | RRIRMRPPRLPRPRPRPRSVPRP | 0.871
52 | RRIRRRPPRLPRPRPRPRCQPRP | 0.385
53 | RRIRDRPPRLPRPRPRPFLIPRP | 0.0926
54 | RRIRCRPPRLPRPRPRPDTDPRP | -0.0352
55 | RRIRYRPPRLPRPRPRPTPTPRP | 0.451
56 | RRIRWRPPRLPRPRPRPNIDPRP | -0.21
57 | RRIRIRPPRLPRPRPRPMFYPRP | -1.25
58 | RRIRHRPPRLPRPRPRPDLGPRP | 0.0527
59 | RRIRRRPPRLPRPRPRPVETPRP | 0.181
60 | RRIRWRPPRLPRPRPRPEVGPRP | 1.38
61 | RRIRWRPPRLPRPRPRPMRQPRP | -0.0376
62 | RRIRERPPRLPRPRPRPTSSPRP | -0.303
63 | RRIRPRPPRLPRPRPRPADFPRP | -0.00303
64 | RRIRERPPRLPRPRPRPPAFPRP | 0.331
65 | RRIRHRPPRLPRPRPRPMITPRP | -0.658
66 | RRIRGRPPRLPRPRPRPHKRPRP | 0.34
67 | RRIRRRPPRLPRPRPRPQLMPRP | 0.247
68 | RRIRLRPPRLPRPRPRPAFQPRP | 0.108
69 | RRIRQRPPRLPRPRPRPENVPRP | -0.0767
70 | RRIRMRPPRLPRPRPRPTHQPRP | 0.38
71 | RRIRCRPPRLPRPRPRPRFPPRP | -0.0867
72 | RRIRLRPPRLPRPRPRPEESPRP | 0.012
73 | RRIRHRPPRLPRPRPRPRHYPRP | -0.285
74 | RRIRGRPPRLPRPRPRPMMGPRP | 0.409
75 | RRIRYRPPRLPRPRPRPGFTPRP | -0.149
